# Test results from patent US20260258083A1 (Amgen, published 2026).
# Where no end group is shown, it is not given here. Side-chain parts run from the residue outwards. [ ]: non-standard residue; d: D form. thiosuccinimide (maleimide) = thiosuccinimide linkage from the Cys thiol to the maleimide of 4-arm 5 kDa PEG; thiosuccinimide = thiosuccinimide linkage joining the Cys side chain to 4-arm 5 kDa PEG; pGlu = O=C1CC[C@@H](C(=O)O)N1; disulfide = not defined here; MAL = maleimide
# B1: pGlu-DGNEELKGC (peptide)
# peptide: [pGlu]DGNEELKGC
# notes: also called ID 14974
# B2: pGlu-DGEEELKGC (peptide)
# peptide: [pGlu]DGEEELKGC
# B3: QDGNEEMG-K-QDGNEEMG (peptide)
# peptide: QDGNEEMGKQDGNEEMG
# B4: (pGlu-DGNEEMGKGMEENGDQC)4 -PEG(20 kDa) (peptide)
# peptide: [pGlu]DGNEEMGKGMEENGDQC([disulfide-4‑arm PEG 20 kDa])
# modifications: reading uncertain; also: four peptides on one 4-arm PEG, printed as pGlu-DGNEEMGKGMEENGDQC
# notes: also called CD3ε PepPOL, v2; Pep-PEG v2
# B5: QDGNEEMG-QDGNEEMG (peptide)
# peptide: QDGNEEMGQDGNEEMG
# B6: (pGlu-DGNEELKGC)4 -MAL PEG(5 kDa) (peptide)
# peptide: [pGlu]DGNEELKGC([MAL-PEG 5 kDa])
# modifications: also: four peptides per PEG
# B7: pGlu-DGNEEMGKGMEENGDQC (peptide)
# peptide: [pGlu]DGNEEMGKGMEENGDQC
# notes: Position 1 is written E for pE
# B8: (QDGNEEMGKGMEENGDQC)4 -PEG(20 kDa) (peptide)
# peptide: QDGNEEMGKGMEENGDQC(4‑arm PEG 20 kDa)
# modifications: also: four peptides on one 4-arm PEG
# notes: Peptide-PEG conjugate with four peptides on one PEG; also called CD3ε PepPOL, v1 (20 kDa); 4-arm 20 kDa PepPOL conjugate
# B9: QDGNEEMG-GMEENGDQ (peptide)
# peptide: QDGNEEMGGMEENGDQ
# notes: how the reversed half is joined is not explained
# B10: (pGlu-DGNEELKGC)4 -MAL PEG(10 kDa) (peptide)
# peptide: [pGlu]DGNEELKGC([MAL-PEG 10 kDa])
# modifications: also: four peptides per PEG
# B11: QDGNEEMG-K (peptide)
# peptide: QDGNEEMGK
# B12: QDGNEEMG (peptide)
# peptide: QDGNEEMG
# B13: pGlu-DGSEELKGC (peptide)
# peptide: [pGlu]DGSEELKGC
# notes: Position 1 is written E for pGlu
# B14: pGlu-DGTEELKGC (peptide)
# peptide: [pGlu]DGTEELKGC
# notes: as for B13
# B15: pGlu-DGIEELKGC (peptide)
# peptide: [pGlu]DGIEELKGC
# notes: as for B13
# B16: pGlu-DGVEELKGC (peptide)
# peptide: [pGlu]DGVEELKGC
# notes: as for B13
# B17: pGlu-DGNEELKPGC (peptide)
# peptide: [pGlu]DGNEELKPGC
# notes: as for B13
# B18: pGlu-DGNEELPKPGC (peptide)
# peptide: [pGlu]DGNEELPKPGC
# notes: as for B13
# B19: 79677-1 (peptide)
# peptide: [pGlu]DGEEELKGC([thiosuccinimide (maleimide)-4‑arm PEG 5 kDa])-NH2
# modifications: also: 4-arm PEG conjugate, number of peptide copies not given here
# notes: TCE masking molecule
# B20: 79676-1 (peptide)
# peptide: [pGlu]DGEEELKGC([thiosuccinimide-4‑arm PEG 20 kDa])-NH2
# modifications: also: 4-arm PEG conjugate, number of peptide copies not given here
# notes: TCE masking molecule
# B21: 79675-1 (peptide)
# peptide: [pGlu]DGNEELKGC([thiosuccinimide-4‑arm PEG 5 kDa])-NH2
# modifications: also: 4-arm PEG conjugate, number of peptide copies not given here
# B22: 79674-1 (peptide)
# peptide: [pGlu]DGNEELKGC([thiosuccinimide-4‑arm PEG 20 kDa])-NH2
# modifications: also: 4-arm PEG conjugate, number of peptide copies not given here
# B23: 73136-2 (peptide)
# peptide: [pGlu]DGNEELKGK([acetamide‑thioether-mPEG 20 kDa])-OH
# modifications: also: Lys 10 side chain linked via thioether (acetamide) to linear 20 kDa mPEG
# notes: TCE masking molecule
# B24: pEDGNEELKGC-NH2 (peptide)
# peptide: [pGlu]DGNEELKGC-NH2
# SMILES: CC(C)C[C@H](NC(=O)[C@H](CCC(=O)O)NC(=O)[C@H](CCC(=O)O)NC(=O)[C@H](CC(N)=O)NC(=O)CNC(=O)[C@H](CC(=O)O)NC(=O)[C@@H]1CCC(=O)N1)C(=O)N[C@@H](CCCCN)C(=O)NCC(=O)N[C@@H](CS)C(N)=O
# notes: Unconjugated peptide (Conjugate column: N/A)
# B25: 72103-1 (peptide)
# peptide: [pGlu]DGNEELKGC([thiosuccinimide-4‑arm PEG 5 kDa])-OH
# Target: CDH3-CD3-MSLN-CD3 TCE (SEQ ID NO 255)
# Test: SPR, immobilised peptide, bivalent analyte model, fast component
# CDH3-CD3-MSLN-CD3 TCE (SEQ ID NO 255), sequence (chain, as listed by the source): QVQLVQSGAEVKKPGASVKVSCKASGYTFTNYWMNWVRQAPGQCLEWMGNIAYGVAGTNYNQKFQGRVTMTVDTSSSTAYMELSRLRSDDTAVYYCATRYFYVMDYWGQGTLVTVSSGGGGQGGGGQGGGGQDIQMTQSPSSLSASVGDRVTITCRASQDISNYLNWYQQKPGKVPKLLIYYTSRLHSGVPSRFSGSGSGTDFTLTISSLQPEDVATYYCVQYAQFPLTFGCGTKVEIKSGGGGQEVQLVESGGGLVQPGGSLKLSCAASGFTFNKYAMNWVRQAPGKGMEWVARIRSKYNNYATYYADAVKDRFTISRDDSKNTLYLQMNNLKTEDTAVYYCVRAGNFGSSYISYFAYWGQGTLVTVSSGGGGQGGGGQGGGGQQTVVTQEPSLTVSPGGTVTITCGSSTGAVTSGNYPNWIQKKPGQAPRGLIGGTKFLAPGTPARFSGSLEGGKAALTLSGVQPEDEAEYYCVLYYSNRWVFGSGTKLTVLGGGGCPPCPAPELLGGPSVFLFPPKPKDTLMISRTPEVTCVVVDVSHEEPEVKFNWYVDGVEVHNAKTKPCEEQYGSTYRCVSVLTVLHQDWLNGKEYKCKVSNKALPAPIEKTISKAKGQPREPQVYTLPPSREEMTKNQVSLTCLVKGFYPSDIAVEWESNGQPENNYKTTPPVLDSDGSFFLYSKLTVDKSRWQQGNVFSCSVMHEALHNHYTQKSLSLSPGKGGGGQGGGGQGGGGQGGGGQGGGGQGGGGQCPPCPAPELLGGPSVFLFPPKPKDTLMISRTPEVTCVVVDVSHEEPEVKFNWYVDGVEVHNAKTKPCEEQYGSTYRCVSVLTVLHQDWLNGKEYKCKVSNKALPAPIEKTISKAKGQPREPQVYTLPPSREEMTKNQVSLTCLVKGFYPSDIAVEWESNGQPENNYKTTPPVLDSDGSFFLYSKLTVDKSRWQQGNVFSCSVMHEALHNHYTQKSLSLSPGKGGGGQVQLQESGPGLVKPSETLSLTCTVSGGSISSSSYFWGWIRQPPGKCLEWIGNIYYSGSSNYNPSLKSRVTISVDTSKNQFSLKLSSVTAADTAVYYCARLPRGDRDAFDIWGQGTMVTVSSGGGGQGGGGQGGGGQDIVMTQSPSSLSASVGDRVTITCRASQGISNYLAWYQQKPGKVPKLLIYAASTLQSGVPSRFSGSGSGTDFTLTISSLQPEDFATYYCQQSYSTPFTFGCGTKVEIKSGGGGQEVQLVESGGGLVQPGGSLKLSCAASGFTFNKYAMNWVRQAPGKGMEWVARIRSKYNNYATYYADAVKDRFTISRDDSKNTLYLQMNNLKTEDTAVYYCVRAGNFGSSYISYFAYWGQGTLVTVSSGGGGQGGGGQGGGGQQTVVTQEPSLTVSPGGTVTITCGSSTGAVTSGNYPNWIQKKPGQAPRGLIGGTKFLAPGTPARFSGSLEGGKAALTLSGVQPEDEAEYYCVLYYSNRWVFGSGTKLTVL
Binder,koff [s⁻¹],kon [M⁻¹ s⁻¹]
B1,0.0212,2.42e+06
B2,0.236,1.29e+06

# Target: CDH3-CD3-MSLN-CD3 TCE (SEQ ID NO 255)
# Test: SPR, peptide immobilised on CM5 (PDEA), TCE as analyte, steady state affinity
row,Binder,Kd [nM]
1,B1,13.3
2,B2,72.5

# Target: T1, FLT3xCD3 TCE SEQ ID NO 93
# T1 construct: Single-chain scFv-scFv-scFc T cell engager; also called FLT3×CD3ε TCE; FLT3_7 A8xCD3-scFc Bispecific HLE molecule
# Test: KinExA equilibrium in solution, Table 5
# Protocol: (§1) 1. Preparation of NHS-activated sepharose fast-flow beads: [0565] 2. Fast flow sepharose suspension in 100% IPA, washed twice with milliQ H20, mild centrifugation to pool beads in between wash steps. [0566] 3. […] 4. Added 80 mM PDEA to activate the resin for thiol exchange, 10 mins, r.t. [0568] 5. […] 6. Added 30 μg/mL of binding peptide, […] […] (SEQ ID NO: 300), reaction for 1 hr to functionalize resin. [0570] 7. Quench with 10 mM L-Cys for 1 hour. [0571] 8.
row,Binder,Kd [nM]
1,B3,8.05
2,B4,0.176
3,B5,11
4,B6,0.142
5,B7,0.176
6,B8,22
7,B9,9.88
8,B10,0.142
9,B1,0.142
10,B11,22.3

# Target: T1, FLT3xCD3 TCE SEQ ID NO 93
# Test: KinExA equilibrium in solution, Table 5; single reference peptide QDGNEEMG (original CD3ε epitope)
# Protocol: as §1
row,Binder,Kd [nM]
1,B12,35.8

# Target: T2, Steap 1xCD3 TCE SEQ ID NO 373 + 374 + 375
# T2 construct: also called STEAP1×CD3e heterodimeric TCE; Ab-A1 Xmab2+1
# Test: SPR solution competition, peptide titrated into fixed TCE, free TCE read on peptide capture surface
# Text: (§2) For the binding assessment, Individual binding isotherms were constructed by titrating the respective peptide of interest into a fixed concentration of TCE-containing solution in PBST. At least 4 hrs equilibration time were allotted (r.t.) prior to analysis by SPR. For the analysis, a calibration curve was first constructed of the TCE analyte being assessed. […] The ‘free’ TCE concentration measured was plotted as a function of log peptide concentration and fit using non-linear regression analysis to a 4 parameter logistic function to derive an IC50.
row,Binder,IC50 [nM]
1,B1,13.4
2,B13,16.7
3,B14,59.9
4,B2,28.6
5,B15,11.6
6,B16,26.4

# Target: T1, FLT3xCD3 TCE SEQ ID NO 93
# Test: as above
# Text: as §2
row,Binder,IC50 [nM]
1,B17,5.2
2,B7,2.4
3,B12,133
4,B18,2.7
5,B1,2.7
6,B13,8.2
7,B14,39.7
8,B2,14.7
9,B15,3.6
10,B16,9

# Target: T3, DLL3xCD3 TCE SEQ ID NO 104
# T3 construct: Single-chain T cell engager; also called DLL3×CD3ε TCE
# Test: KinExA equilibrium in solution, KD relative to peptide concentration, TCE 250 pM
row,Binder,Kd [nM]
1,B19,4.69
2,B20,12.8
3,B21,0.0623
4,B22,0.0372

# Target: CDH3-CD3-MSLN-CD3 TCE (SEQ ID NO 255)
# Test: as above
row,Binder,Kd [nM]
1,B22,0.0638

# Target: T1, FLT3xCD3 TCE SEQ ID NO 93
# Test: as above
row,Binder,Kd [nM]
1,B23,0.173

# Target: T2, Steap 1xCD3 TCE SEQ ID NO 373 + 374 + …
# Test: KinExA equilibrium in solution, KD relative to peptide concentration, TCE 333 pM
# Protocol: 1. […] 2. […] 3. […] 4. Added 80 mM PDEA to activate the resin for thiol exchange, 10 mins, r.t. […] 5. […] 6. […] 7. […] 8.
row,Binder,Kd [nM]
1,B24,1.59

# Target: T1, FLT3xCD3 TCE SEQ ID NO 93
# Test: Table 5, ratio to a reference peptide that the table does not name
# Set-up: reference not given here
Binder,fold-Kd [fold],fold-koff [fold],fold-kon [fold]
B3,2.77,0.28,0.56
B4,203,0.01,16.2
B5,3.25,0.24,0.77
B7,203,,
B8,,,1.14
B9,3.62,0.19,0.69
B1,252,,

# Target: T1, FLT3xCD3 TCE SEQ ID NO 93
# Test: kinetics, Table 5
# Protocol: as §1
row,Binder,koff [s⁻¹]
1,B3,0.00497
2,B4,0.00195
3,B5,0.00586
4,B8,0.0047
5,B9,0.00471
6,B12,0.0248
7,B11,0.0179

# Target: T3, DLL3xCD3 TCE SEQ ID NO 104
# Test: SPR, peptide immobilised on CM5 (PDEA), TCE as analyte, kinetic 1:1 fit
Binder,Kd [nM],koff [s⁻¹],kon [M⁻¹ s⁻¹]
B1,1.3,0.00279,2.14e+06
B14,14.8,0.0713,4.81e+06
B2,20.5,0.0542,2.64e+06

# Target: T2, Steap 1xCD3 TCE SEQ ID NO 373 + 374 + …
# Test: as above
Binder,Kd [nM],koff [s⁻¹],kon [M⁻¹ s⁻¹]
B1,2.57,0.00514,2e+06
B14,35.2,0.0734,2.09e+06
B2,27.4,0.0834,3.04e+06

# Target: T1, FLT3xCD3 TCE SEQ ID NO 93
# Test: as above
Binder,Kd [nM],koff [s⁻¹],kon [M⁻¹ s⁻¹]
B1,1.28,0.0024,1.88e+06
B14,8.88,0.0285,3.21e+06
B2,7.3,0.0295,4.04e+06

# Target: T1, FLT3xCD3 TCE SEQ ID NO 93
# Test: KinExA equilibrium in solution, KD relative to peptide concentration, TCE 125 pM
row,Binder,Kd [nM]
1,B25,0.0777

# Target: T1, FLT3xCD3 TCE SEQ ID NO 93
# Test: KinExA association kinetics, Table 5
# Protocol: as §1
row,Binder,kon [M⁻¹ s⁻¹]
1,B3,448000
2,B4,1.12e+07
3,B5,533000
4,B8,199000
5,B9,476000
6,B12,692000
7,B11,806000
